Results: publication PMC2602789

Target: wild-type Tn3 resolvase (bacterial transposon Tn3) (UniProt P0ADI2)
Test: SEC

Q: Which stoichiometry N does the source give for “wild-type Tn3 resolvase (from UniProt P0ADI2 1-185) (enzyme)” here?
A: 2
